Reference: patent US20250339569A1 (3B PHARMACEUTICALS, published 2025)
Starred links: 1 amine or outer side, 2 acyl side, 3 side chain; linkers in the order of their positions; H or OH if unused. Positions of bridges follow the written chain, without caps; N, C: chain ends. Non-standard residues stand in square brackets, D forms with d. Groups on a side chain read outwards from the residue. No end group written: not given here. *: point of attachment. DOTA = O=C(O)CN1CCN(CC(=O)O)CCN(CC(=O)*)CCN(CC(=O)O)CC1; mXylylene = c1cc(C[*:1])cc(C[*:2])c1; Apr = not defined here; AEEA = NCCOCCOCC(=O)O

B1: 3BP-3433 (peptide)
peptide: Ac-VYCE[dP]DWLTWAC
modifications: linker 3-12 via mXylylene; not fully specified (C-terminus)
notes: The printed formula ends at '-Ape-NH'; also called Ac-Val-Tyr-[Cys(3MeBn)-Glu-pro-Asp-Trp-Leu-Thr-Trp-Ala-Cys]-Mamb-Ape-NH
B2: 3BP-3434 (peptide)
peptide: Ac-VYCE[dP]DWLTWAC
modifications: linker 3-12 via mXylylene; not fully specified (C-terminus)
notes: also called Ac-Val-Tyr-[Cys(3MeBn)-Glu-pro-Asp-Trp-Leu-Thr-Trp-Ala-Cys]-Ape-NH-DOTA′
B3: 3BP-3478 (peptide)
peptide: Ac-VYCE[dP]DWLTWE([Apr-DOTA])C-NH2
modifications: linker 3-12 via mXylylene; reading uncertain
notes: also called Ac-Val-Tyr-[Cys(3MeBn)-Glu-pro-Asp-Trp-Leu-Thr-Trp-Glu(NH-Apr-DOTA′)-Cys]-NH2
B4: 3BP-3479 (peptide)
peptide: Ac-VYCE[dP]DWLTWE([Apr-AEEA-DOTA])C-NH2
modifications: linker 3-12 via mXylylene; reading uncertain
notes: also called Ac-Val-Tyr-[Cys(3MeBn)-Glu-pro-Asp-Trp-Leu-Thr-Trp-Glu(NH-Apr-O2Oc-DOTA′)-Cys]-NH2
B5: 3BP-3565 (peptide)
peptide: Ac-VYCE[dP]DWLTWSC-NH2
modifications: linker 3-12 via mXylylene
SMILES: CC(=O)N[C@H](C(=O)N[C@@H](Cc1ccc(O)cc1)C(=O)N[C@H]1CSCc2cccc(c2)CSC[C@@H](C(N)=O)NC(=O)[C@H](CO)NC(=O)[C@H](Cc2c[nH]c3ccccc23)NC(=O)[C@H]([C@@H](C)O)NC(=O)[C@H](CC(C)C)NC(=O)[C@H](Cc2c[nH]c3ccccc23)NC(=O)[C@H](CC(=O)O)NC(=O)[C@H]2CCCN2C(=O)[C@H](CCC(=O)O)NC1=O)C(C)C
notes: also called Ac-Val-Tyr-[Cys(3MeBn)-Glu-pro-Asp-Trp-Leu-Thr-Trp-Ser-Cys]-NH2
B6: 3BP-3566 (peptide)
peptide: Ac-SYCE[dP]DWLTWSC-NH2
modifications: linker 3-12 via mXylylene
SMILES: CC(=O)N[C@@H](CO)C(=O)N[C@@H](Cc1ccc(O)cc1)C(=O)N[C@H]1CSCc2cccc(c2)CSC[C@@H](C(N)=O)NC(=O)[C@H](CO)NC(=O)[C@H](Cc2c[nH]c3ccccc23)NC(=O)[C@H]([C@@H](C)O)NC(=O)[C@H](CC(C)C)NC(=O)[C@H](Cc2c[nH]c3ccccc23)NC(=O)[C@H](CC(=O)O)NC(=O)[C@H]2CCCN2C(=O)[C@H](CCC(=O)O)NC1=O
notes: also called Ac-Ser-Tyr-[Cys(3MeBn)-Glu-pro-Asp-Trp-Leu-Thr-Trp-Ser-Cys]-NH2
B7: 3BP-3567 (peptide)
peptide: Ac-TYCE[dP]DWLTWSC-NH2
modifications: linker 3-12 via mXylylene
SMILES: CC(=O)N[C@H](C(=O)N[C@@H](Cc1ccc(O)cc1)C(=O)N[C@H]1CSCc2cccc(c2)CSC[C@@H](C(N)=O)NC(=O)[C@H](CO)NC(=O)[C@H](Cc2c[nH]c3ccccc23)NC(=O)[C@H]([C@@H](C)O)NC(=O)[C@H](CC(C)C)NC(=O)[C@H](Cc2c[nH]c3ccccc23)NC(=O)[C@H](CC(=O)O)NC(=O)[C@H]2CCCN2C(=O)[C@H](CCC(=O)O)NC1=O)[C@@H](C)O
notes: also called Ac-Thr-Tyr-[Cys(3MeBn)-Glu-pro-Asp-Trp-Leu-Thr-Trp-Ser-Cys]-NH2
B8: 3BP-3568 (peptide)
peptide: Ac-IYCE[dP]DWLTWSC-NH2
modifications: linker 3-12 via mXylylene
SMILES: CC[C@H](C)[C@H](NC(C)=O)C(=O)N[C@@H](Cc1ccc(O)cc1)C(=O)N[C@H]1CSCc2cccc(c2)CSC[C@@H](C(N)=O)NC(=O)[C@H](CO)NC(=O)[C@H](Cc2c[nH]c3ccccc23)NC(=O)[C@H]([C@@H](C)O)NC(=O)[C@H](CC(C)C)NC(=O)[C@H](Cc2c[nH]c3ccccc23)NC(=O)[C@H](CC(=O)O)NC(=O)[C@H]2CCCN2C(=O)[C@H](CCC(=O)O)NC1=O
notes: also called Ac-Ile-Tyr-[Cys(3MeBn)-Glu-pro-Asp-Trp-Leu-Thr-Trp-Ser-Cys]-NH2
B9: 3BP-3570 (peptide)
peptide: Ac-VFCE[dP]DWLTWSC-NH2
modifications: linker 3-12 via mXylylene
SMILES: CC(=O)N[C@H](C(=O)N[C@@H](Cc1ccccc1)C(=O)N[C@H]1CSCc2cccc(c2)CSC[C@@H](C(N)=O)NC(=O)[C@H](CO)NC(=O)[C@H](Cc2c[nH]c3ccccc23)NC(=O)[C@H]([C@@H](C)O)NC(=O)[C@H](CC(C)C)NC(=O)[C@H](Cc2c[nH]c3ccccc23)NC(=O)[C@H](CC(=O)O)NC(=O)[C@H]2CCCN2C(=O)[C@H](CCC(=O)O)NC1=O)C(C)C
notes: also called Ac-Val-Phe-[Cys(3MeBn)-Glu-pro-Asp-Trp-Leu-Thr-Trp-Ser-Cys]-NH2

molecular target: human carbonic anhydrase 9 (CAIX) (human, UniProt Q16790 38-459); test: FACS competition on HT-29 cells against tracer 3BP-2776; pIC50 category A = pIC50 >8.0
Experimental: CAIX-expressing human HT-29 colorectal cancer cells (DSMZ, RRID: CVCL_0320) were cultured in McCoys's 5A modified medium (Biochrom, #F1015) including 10% fetal calf serum (FCS), 2 mM L-glutamine, 100 U/ml penicillin and 100 μg/mL streptomycin. Cells were detached with Accutase (Biolegend, #423201) and washed in FACS buffer (PBS including 1% FCS). Cells were diluted in FACS buffer to a final concentration of 500.000 cells per ml. 200 μL of the cell suspension were transferred to a u-shaped non-binding 96-well plate (Greiner) and cells were washed in ice-cold FACS buffer.
When biotinylated compounds were used an additional incubation step with 1 μg/mL APC-Streptavidin (Miltenyi; #130-106-791) in 50 μL FACS buffer for 30 minutes on ice was performed.
Cells were washed twice with ice-cold FACS buffer and analyzed in an Attune NxT flow cytometer (Thermo Fisher). Median fluorescence intensities (MFI) of the APC/Cy5-channel were calculated by Attune NxT software.

pIC50, > 8 pic50:
B1
B2
B3
B4
B5
B6
B7
B8
B9
